Drawing on paper PMC6744478, “Development of R7BP inhibitors through cross-linking coupled mass spectrometry and integrated modeling” (Communications Biology, 2019), this text covers Kd for three molecules.

Assay in all cases: SPR; OpenSPR (Nicoya), Streptavidin sensor chip; tagged R7BP variant as ligand, purified R7-RGS/Gβ5 duplex as analyte at 3–5 concentrations; PBS pH 7.4, 0.005% Tween20; 25 µL per minute; 1:1-binding model; two independent experiments
Conditions in all cases: both partners purified
Background: SPR reads the build-up and loss of mass on a sensor chip optically.

The target in experiment [1] is T1, RGS7/Gβ5 duplex (human, UniProt P49802 1-495; O14775-2 1-353).
T1 construct: RGS7 (regulator of G protein signaling 7), human; cDNA in pCMV3 vector from Sino Biological; holds the loop RGS7-LP21 at aa230–250; Gβ5 (GNB5), human, short form; also called RGS7 duplex; RGS7/HIS-Gβ5; source: Expi293 HEK cells, transfected, purified; not shown: 6x HIS (named on the purified RGS7/HIS-Gβ5 of the Western blot)
T1 sequence (looked up) 1: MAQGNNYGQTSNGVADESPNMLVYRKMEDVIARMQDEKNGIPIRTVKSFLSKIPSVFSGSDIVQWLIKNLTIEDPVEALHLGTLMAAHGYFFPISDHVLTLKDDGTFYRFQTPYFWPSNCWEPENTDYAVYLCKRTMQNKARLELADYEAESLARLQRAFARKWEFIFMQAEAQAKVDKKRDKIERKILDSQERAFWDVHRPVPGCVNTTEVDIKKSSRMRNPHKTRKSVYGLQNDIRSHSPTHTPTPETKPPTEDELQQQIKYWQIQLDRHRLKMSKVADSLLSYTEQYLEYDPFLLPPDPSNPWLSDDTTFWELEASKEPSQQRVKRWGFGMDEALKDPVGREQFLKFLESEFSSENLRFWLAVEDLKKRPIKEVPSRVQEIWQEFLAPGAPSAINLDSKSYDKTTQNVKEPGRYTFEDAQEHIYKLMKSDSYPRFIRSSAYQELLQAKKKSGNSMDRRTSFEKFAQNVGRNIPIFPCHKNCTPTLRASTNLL
T1 sequence (looked up) 2: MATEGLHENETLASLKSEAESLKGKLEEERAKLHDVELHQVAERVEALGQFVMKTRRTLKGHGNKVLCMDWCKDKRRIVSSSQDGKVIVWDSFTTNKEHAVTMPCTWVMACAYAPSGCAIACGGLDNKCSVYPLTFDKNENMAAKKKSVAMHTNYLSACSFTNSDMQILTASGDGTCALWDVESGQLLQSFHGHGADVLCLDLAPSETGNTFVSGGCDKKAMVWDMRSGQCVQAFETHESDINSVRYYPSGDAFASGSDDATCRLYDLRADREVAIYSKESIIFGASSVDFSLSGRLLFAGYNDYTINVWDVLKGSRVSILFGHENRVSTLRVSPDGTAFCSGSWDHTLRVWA

The target of experiment [2] is T2, RGS6/Gβ5 duplex (human, UniProt P49758 1-472; O14775-2 1-353).
T2 construct: RGS6 (regulator of G protein signaling 6), human; Gβ5 (GNB5), human, short form; Only GNB5 constructs with an N-terminal 6x HIS or TS tag are described; also called RGS6 duplex; source: Expi293 HEK cells, transfected, purified
T2 sequence (looked up) 1: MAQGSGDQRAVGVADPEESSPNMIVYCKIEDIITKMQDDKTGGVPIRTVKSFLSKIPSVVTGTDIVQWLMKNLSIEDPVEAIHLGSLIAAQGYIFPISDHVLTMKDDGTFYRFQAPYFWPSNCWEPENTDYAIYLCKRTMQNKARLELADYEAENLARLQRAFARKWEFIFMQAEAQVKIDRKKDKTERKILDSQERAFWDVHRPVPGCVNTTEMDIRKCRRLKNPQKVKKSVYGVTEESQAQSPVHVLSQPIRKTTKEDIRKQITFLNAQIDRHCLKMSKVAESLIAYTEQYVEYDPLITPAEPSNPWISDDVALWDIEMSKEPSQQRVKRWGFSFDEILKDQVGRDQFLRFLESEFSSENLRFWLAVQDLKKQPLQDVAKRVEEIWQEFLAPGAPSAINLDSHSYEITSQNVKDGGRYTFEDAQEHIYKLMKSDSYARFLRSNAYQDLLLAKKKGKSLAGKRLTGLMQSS
T2 sequence (looked up) 2: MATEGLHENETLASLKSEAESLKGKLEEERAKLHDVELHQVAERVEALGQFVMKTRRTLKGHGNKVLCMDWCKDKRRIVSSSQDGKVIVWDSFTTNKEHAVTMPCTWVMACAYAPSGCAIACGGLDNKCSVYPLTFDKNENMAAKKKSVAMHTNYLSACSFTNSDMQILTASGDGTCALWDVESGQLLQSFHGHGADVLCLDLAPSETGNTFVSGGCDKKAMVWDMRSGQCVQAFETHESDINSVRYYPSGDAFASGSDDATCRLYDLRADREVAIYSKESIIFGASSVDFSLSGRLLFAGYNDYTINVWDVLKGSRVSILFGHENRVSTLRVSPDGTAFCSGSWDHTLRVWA

The target in experiment [3] is T3, RGS11/Gβ5 duplex (human, UniProt O94810 1-467; O14775-2 1-353).
T3 construct: RGS11 (regulator of G protein signaling 11), human; Gβ5 (GNB5), human, short form; also called RGS11 duplex; source: Expi293 HEK cells, transfected, purified
T3 sequence (O94810 whole entry, one chain of several): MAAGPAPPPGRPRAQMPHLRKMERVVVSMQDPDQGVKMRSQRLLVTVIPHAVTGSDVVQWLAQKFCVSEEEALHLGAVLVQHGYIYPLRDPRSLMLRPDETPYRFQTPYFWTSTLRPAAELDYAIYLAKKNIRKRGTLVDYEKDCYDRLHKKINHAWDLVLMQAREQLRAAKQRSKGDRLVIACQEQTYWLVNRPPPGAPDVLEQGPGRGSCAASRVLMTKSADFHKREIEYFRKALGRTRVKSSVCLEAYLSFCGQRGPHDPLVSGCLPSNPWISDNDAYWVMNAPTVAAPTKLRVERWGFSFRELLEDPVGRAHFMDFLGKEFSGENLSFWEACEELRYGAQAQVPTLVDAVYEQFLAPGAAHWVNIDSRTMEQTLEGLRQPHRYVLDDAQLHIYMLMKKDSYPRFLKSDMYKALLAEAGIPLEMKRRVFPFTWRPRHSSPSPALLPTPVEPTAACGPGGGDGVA

Experiment [4] deals with T4, RGS9/Gβ5 duplex (human, UniProt O75916 1-674; O14775-2 1-353).
T4 construct: RGS9-2 (regulator of G protein signaling 9, splice form 2), human; cDNA in pCMV3 vector from Sino Biological; Gβ5 (GNB5), human, short form; also called RGS9 duplex; RGS9-2/Gβ5; source: Expi293 HEK cells, transfected, purified
T4 sequence (looked up) 1: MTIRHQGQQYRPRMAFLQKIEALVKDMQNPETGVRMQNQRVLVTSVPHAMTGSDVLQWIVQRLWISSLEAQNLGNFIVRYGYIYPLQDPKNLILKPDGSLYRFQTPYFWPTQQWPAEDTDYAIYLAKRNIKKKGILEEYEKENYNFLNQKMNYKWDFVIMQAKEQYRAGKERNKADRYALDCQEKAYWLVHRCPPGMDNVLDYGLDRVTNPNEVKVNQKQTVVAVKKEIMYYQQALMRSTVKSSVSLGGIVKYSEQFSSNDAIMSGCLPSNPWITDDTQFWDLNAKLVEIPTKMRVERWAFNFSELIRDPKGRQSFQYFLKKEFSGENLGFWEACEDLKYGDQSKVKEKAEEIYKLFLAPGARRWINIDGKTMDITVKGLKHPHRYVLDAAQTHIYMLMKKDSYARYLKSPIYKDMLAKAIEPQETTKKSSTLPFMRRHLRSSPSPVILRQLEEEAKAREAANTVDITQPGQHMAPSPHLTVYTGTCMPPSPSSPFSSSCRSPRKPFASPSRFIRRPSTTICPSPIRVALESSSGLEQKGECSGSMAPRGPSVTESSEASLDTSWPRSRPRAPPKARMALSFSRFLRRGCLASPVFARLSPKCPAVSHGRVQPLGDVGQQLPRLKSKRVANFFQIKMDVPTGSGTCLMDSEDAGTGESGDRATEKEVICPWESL
T4 sequence (looked up) 2: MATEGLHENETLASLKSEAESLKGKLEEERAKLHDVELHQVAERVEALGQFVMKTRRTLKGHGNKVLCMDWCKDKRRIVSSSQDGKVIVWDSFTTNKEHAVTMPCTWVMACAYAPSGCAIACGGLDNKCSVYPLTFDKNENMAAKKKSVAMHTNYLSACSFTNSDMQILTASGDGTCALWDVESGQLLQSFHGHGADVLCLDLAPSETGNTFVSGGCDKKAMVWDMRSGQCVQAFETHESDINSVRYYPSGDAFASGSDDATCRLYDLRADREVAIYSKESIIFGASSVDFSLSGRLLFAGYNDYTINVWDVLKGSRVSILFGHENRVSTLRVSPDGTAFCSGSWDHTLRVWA

B1: R7BPΔN (domain or fragment, human, UniProt Q6MZT1 22-257, looked up)
chain: QISKPPLQSGDWERRGSGSESAHKTQRALDDCKMLVQEFNTQVALYRELVISIGDVSVSCPSLRAEMHKTRTKGCEMARQAHQKLAAISGPEDGEIHPEICRLYIQLQCCLEMYTTEMLKSICLLGSLQFHRKGKEPGGGTKSLDCKIEESAETPALEDSSSSPVDSQQHSWQVSTDIENTERDMREMKNLLSKLRETMPLPLKNQDDSSLLNLTPYPLVRRRKRRFFGLSSLISS
notes: R7BP (RGS7BP), human, lacking the N-terminal 21 amino acids (R7BP-N21); C252S, C253S are stated for all R7BP constructs; Its tag is surmised from its use as SPR ligand; also called truncated R7BP derivative lacking the N-terminal 21 amino acids; source: Expi293 HEK cells, transfected, purified
In the case of B1, in experiment [1], binding was characterised by a dissociation constant (Kd) of 1.8 nM.

B2: R7BP-FL (full-length R7BP; construct R7BP-TEV-TS) (natural protein, human, UniProt Q6MZT1 1-257, looked up)
chain: MSSAPNGRKKRPSRSTRSSIFQISKPPLQSGDWERRGSGSESAHKTQRALDDCKMLVQEFNTQVALYRELVISIGDVSVSCPSLRAEMHKTRTKGCEMARQAHQKLAAISGPEDGEIHPEICRLYIQLQCCLEMYTTEMLKSICLLGSLQFHRKGKEPGGGTKSLDCKIEESAETPALEDSSSSPVDSQQHSWQVSTDIENTERDMREMKNLLSKLRETMPLPLKNQDDSSLLNLTPYPLVRRRKRRFFGLSSLISS
notes: last residue 257 by the printed aa223–257; palmitoylation site removed; also called RGS7BP; source: Expi293 HEK cells, transfected, purified (StrepTrap HP; SEC if needed); not shown: Twin-Strep (after a TEV protease site), C-terminal, kept
In the case of B2, the Kd in experiment [1] amounted to 19 nM; in experiment [2], 2.3 nM; in experiment [3], 2.3 nM; in experiment [4], 1.5 nM.

B3: R7BPΔC (domain or fragment, human, UniProt Q6MZT1 1-222, looked up)
chain: MSSAPNGRKKRPSRSTRSSIFQISKPPLQSGDWERRGSGSESAHKTQRALDDCKMLVQEFNTQVALYRELVISIGDVSVSCPSLRAEMHKTRTKGCEMARQAHQKLAAISGPEDGEIHPEICRLYIQLQCCLEMYTTEMLKSICLLGSLQFHRKGKEPGGGTKSLDCKIEESAETPALEDSSSSPVDSQQHSWQVSTDIENTERDMREMKNLLSKLRETMPL
notes: R7BP (RGS7BP), human, C-terminus aa223–257 removed (the mutated cysteines 252 and 253 lie in the removed stretch); Its tag is surmised from its use as SPR ligand; also called R7BP with the C-terminus (aa223–257) removed; source: Expi293 HEK cells, transfected, purified
B3: the Kd in experiment [1] came to 9.9 nM.

For orientation: Kd means the concentration at which binding is half-saturated.
